Measured values taken from US20050282743A1, “Molecular interactions in cells” (Arbor Vita Corporation, priority 2001, published 2005).

Assays:
[1] = target: T1, GST-TIP1 PDZ domain 1 (Table 9 insert) (Homo sapiens (Human)), O14907; assay: G' assay; further: key of the grades not given here
T1 chain: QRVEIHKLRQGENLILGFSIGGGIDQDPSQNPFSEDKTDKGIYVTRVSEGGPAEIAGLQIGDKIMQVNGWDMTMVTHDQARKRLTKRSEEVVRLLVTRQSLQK

[2] = target: T2, GST-KIAA1719 PDZ domain 5 (Homo sapiens (Human)), Q9C0E4; assay: G' assay; further: key of the grades not given here
T2 chain: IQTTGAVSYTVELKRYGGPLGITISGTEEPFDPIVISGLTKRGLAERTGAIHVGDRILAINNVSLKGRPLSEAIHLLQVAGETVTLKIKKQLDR

[3] = target: T3, GST-KIAA1719 PDZ domain 2 (Homo sapiens (Human)), Q9C0E4; assay: G' assay; further: key of the grades not given here
T3 chain: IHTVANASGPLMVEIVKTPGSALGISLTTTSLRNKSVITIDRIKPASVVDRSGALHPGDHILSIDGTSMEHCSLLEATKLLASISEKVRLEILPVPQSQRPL

[4] = target: GST-TAX IP2 PDZ domain 1 [GST: P08515]; assay: G' assay; further: key of the grades not given here
[5] = target: T4, GST-MINT1 PDZ domains 1, 2, Q02410; assay: G' assay; further: key of the grades not given here
T4 chain: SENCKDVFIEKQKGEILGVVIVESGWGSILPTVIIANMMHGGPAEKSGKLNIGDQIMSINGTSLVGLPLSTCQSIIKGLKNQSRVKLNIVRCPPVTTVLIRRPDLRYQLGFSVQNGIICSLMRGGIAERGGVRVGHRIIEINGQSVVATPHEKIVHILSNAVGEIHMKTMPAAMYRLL

[6] = target: GST-KIAA1634 PDZ domain 1 (Homo sapiens (Human)), Q5TCQ9; assay: G' assay; further: key of the grades not given here
[7] = target: T5, GST-KIAA0807(S) PDZ domain 1 (Homo sapiens (Human)), Q6P0Q8; assay: G assay titration, PDZ 0.1 ug/ml
T5 chain: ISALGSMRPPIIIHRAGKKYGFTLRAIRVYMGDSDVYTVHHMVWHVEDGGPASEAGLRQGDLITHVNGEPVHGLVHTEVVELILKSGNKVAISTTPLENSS

[8] = target: T6, GST-ERBIN PDZ domain 1 (Homo sapiens (Human)), Q96RT1; assay: G assay titration, PDZ 5 ug/ml
T6 chain: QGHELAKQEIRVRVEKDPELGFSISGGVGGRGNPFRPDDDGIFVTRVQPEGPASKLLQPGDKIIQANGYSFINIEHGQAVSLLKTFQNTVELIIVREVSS

[9] = target: GST-KIAA1634 PDZ domain 4 (Homo sapiens (Human)), Q5TCQ9; assay: G assay titration, PDZ 5 ug/ml
[10] = target: T7, GST-MUPP1 PDZ domain 10 (Homo sapiens (Human)), O75970; assay: G' assay; further: key of the grades not given here
T7 chain: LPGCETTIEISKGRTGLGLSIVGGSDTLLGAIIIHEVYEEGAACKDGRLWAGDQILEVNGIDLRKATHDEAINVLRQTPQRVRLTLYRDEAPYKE

[11] = target: T6, GST-ERBIN PDZ domain 1 (Homo sapiens …); assay: G' assay; further: key of the grades not given here
[12] = target: GST-KIAA807 [GST: P08515]; assay: G' assay; further: key of the grades not given here
[13] = target: T8, GST-INADL PDZ domain 8 (Homo sapiens (Human)), Q8NI35; assay: G' assay; further: key of the grades not given here
T8 chain: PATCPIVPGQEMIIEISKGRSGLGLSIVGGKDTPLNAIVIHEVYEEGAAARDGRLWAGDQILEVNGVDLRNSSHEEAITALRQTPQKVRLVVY

[14] = target: GST-KIAA1634 PDZ domain 4 (Homo sapiens (Human)), Q5TCQ9; assay: G' assay; further: key of the grades not given here
[15] = target: T9, GST-NeDLG PDZ domain 3 (Mus musculus (Mouse)), P70175; assay: G' assay; further: key of the grades not given here
T9 chain: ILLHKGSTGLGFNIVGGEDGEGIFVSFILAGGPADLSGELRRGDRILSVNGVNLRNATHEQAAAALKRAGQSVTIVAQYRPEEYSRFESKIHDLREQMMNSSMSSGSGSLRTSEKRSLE

[16] = target: T10, GST-Syntrophin 1 alpha PDZ domain 1 (Homo sapiens (Human)), Q13424; assay: G' assay; further: key of the grades not given here
T10 chain: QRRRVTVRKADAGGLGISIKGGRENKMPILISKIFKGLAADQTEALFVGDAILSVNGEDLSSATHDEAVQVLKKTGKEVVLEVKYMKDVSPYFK

[17] = target: T11, GST-Outer Membrane PDZ domain 1 (Homo sapiens (Human)), P57105; assay: G' assay; further: key of the grades not given here
T11 chain: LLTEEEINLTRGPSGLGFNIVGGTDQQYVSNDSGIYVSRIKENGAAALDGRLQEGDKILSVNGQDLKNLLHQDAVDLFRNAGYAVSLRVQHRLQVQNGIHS

[18] = target: T12, GST-DLG1 PDZ domain 2 (Homo sapiens), Q12959; assay: G' assay; further: key of the grades not given here
T12 chain: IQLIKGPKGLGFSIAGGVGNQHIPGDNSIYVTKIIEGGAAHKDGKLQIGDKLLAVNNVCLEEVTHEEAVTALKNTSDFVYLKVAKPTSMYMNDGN

[19] = target: T13, GST-KIAA0973 PDZ domain 1 (Homo sapiens (Human)), Q9Y2H9; assay: G' assay; further: key of the grades not given here
T13 chain: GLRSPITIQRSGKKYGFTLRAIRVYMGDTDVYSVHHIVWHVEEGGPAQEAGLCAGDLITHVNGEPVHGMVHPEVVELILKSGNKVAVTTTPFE

[20] = target: GST-BAI-1 Associated Protein PDZ domain 5 (Homo sapiens (Human)), Q96QZ7; assay: G' assay; further: key of the grades not given here
[21] = target: T14, GST-KIAA0380 PDZ domain 1 (Homo sapiens (Human)), O15085; assay: G' assay; further: key of the grades not given here
T14 chain: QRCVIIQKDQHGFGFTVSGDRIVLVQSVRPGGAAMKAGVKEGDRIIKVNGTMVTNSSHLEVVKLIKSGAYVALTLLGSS

[22] = target: T5, GST-KIAA0807(S) PDZ domain 1 (Homo …); assay: G' assay; further: key of the grades not given here
[23] = target: T15, GST-KIAA1526 PDZ domain 1 (Homo sapiens (Human)), Q9P202; assay: G' assay; further: key of the grades not given here
T15 chain: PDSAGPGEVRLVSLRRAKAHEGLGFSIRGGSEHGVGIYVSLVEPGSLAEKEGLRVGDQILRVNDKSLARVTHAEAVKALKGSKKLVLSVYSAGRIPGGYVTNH

[24] = target: T16, GST-ZO-3 PDZ domain 3 (Homo sapiens (Human)), O95049; assay: G' assay; further: key of the grades not given here
T16 chain: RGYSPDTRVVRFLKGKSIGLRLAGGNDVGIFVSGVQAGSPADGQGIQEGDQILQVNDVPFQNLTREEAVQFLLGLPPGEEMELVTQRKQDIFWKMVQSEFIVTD

GST-KIAA1634 PDZ domain 4 (Homo sapiens (Human)), Q5TCQ9, sequence (Q5TCQ9 844-945): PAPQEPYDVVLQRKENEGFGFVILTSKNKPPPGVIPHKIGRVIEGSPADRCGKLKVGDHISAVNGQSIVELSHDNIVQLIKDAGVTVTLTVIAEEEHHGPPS
GST-KIAA1634 PDZ domain 1 (Homo sapiens (Human)), Q5TCQ9, sequence (Q5TCQ9 401-502): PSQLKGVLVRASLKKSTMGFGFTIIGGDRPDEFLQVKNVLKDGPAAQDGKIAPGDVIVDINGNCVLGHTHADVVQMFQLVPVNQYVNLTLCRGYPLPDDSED
GST-TAX IP2 PDZ domain 1 [GST: P08515], sequence (P08515 whole entry, the tested form may be a part): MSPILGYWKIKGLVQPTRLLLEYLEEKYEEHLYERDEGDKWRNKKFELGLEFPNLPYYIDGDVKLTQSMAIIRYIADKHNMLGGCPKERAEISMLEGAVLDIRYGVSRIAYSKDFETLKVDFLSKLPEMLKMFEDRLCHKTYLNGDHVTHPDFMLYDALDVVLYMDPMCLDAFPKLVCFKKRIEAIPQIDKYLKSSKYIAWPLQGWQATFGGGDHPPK
GST-KIAA807 [GST: P08515], sequence (P08515 whole entry, the tested form may be a part): as above
GST-BAI-1 Associated Protein PDZ domain 5 (Homo sapiens (Human)), Q96QZ7, sequence (Q96QZ7 988-1099): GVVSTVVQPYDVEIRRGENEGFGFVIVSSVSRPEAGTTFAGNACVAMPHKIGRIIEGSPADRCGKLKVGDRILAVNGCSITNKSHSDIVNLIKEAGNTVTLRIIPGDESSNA

B1: CKR5 (HIV Co-receptor) (peptide)
peptide: ERASSVYTRSTGEQEISVGL
modifications: not checked
Classification [1]: 1 A450 class | Classification [2]: 1 A450 class | Classification [3]: 1 A450 class | Classification [4]: 1 A450 class | Classification [5]: 1 A450 class | Classification [6]: 1 A450 class

B2: CITRON protein (peptide)
peptide: AGAVRTPLSQVNKVWDQSSV
modifications: not checked
Kd [7]: 1 µM | Kd [8]: 7 µM | Kd [9]: 8 µM | Classification [10]: 1 A450 class | Classification [11]: 4 A450 class | Classification [1]: 5 A450 class | Classification [12]: 4 A450 class | Classification [13]: 1 A450 class | Classification [14]: 3 A450 class | Classification [15]: 3 A450 class | Classification [16]: 1 A450 class | Classification [17]: 4 A450 class | Classification [18]: 2 A450 class | Classification [19]: 5 A450 class | Classification [20]: 2 A450 class | Classification [21]: 1 A450 class | Classification [22]: 4 A450 class | Classification [23]: 1 A450 class | Classification [24]: 1 A450 class
